In the DeepSol protein solubility set:

Assay: soluble on expression in E. coli; label from the status in PepcDB or PDB records

Sequence | soluble on expression in E. coli
MGHHHHHHSHRNLDSRTFITIGDRNFEVEADDLVTISELGRGAYGVVEKVRHAQSGTIMAVKRIRATVNSQEQKRLLMDLDINMRTVDCFYTVTFYGALFREGDVWICMELMDTSLDKFYRKVLDKNMTIPEDILGEIAVSIVRALEHLHSKLSVIHRDVKPSNVLINKEGHVKMCDFGISGYLVDSVAKTMDAGCKPYMAPERINPELNQKGYNVKSDVWSLGITMIEMAILRFPYESWGTPFQQLKQVVEEPSPQLPADRFSPEFVDFTAQCLRKNPAERMSYLELMEHPFF | soluble
MGLVTDEVRARAEKYTGDEICREKTKEFLKEVSMPNGLLPLKDIEEVGYDRETGIVWLKQKKSITHKFEAIGKLVSYATEVIAQVEVGKIKKLTGVKAKELLIWVTLNELVLEQPTSSGKINFRTPTGLSRTFPVSAFVVPEVEKPATEKNNGTTEVKEAVAVTDA | not soluble
MGSDKIHHHHHHMLSDKQKKHILVNRDGLKYYTVEGLEKVHEEMLRLLLIIDTIAKENNIPYWIDGGSLIGIVRHKGFIPWDDDLDISLLKKDYLRLIKEISMYCEMHNDVALFYNEPLVEHTCNFFASKKVFSRTQGSCVLVPVKIDIRPVNCIVKNKDNVIENNIYRDTANYIIFGKSYGYMKKTLSHKNEQMDFLEYYNYKYGLVDSGLENVIMVHPYFEFSNTFELTYNDLFPLKMLQFENMLLPVPNNYDYLLKELYGDYMSYPNICHRAPVACQIYQRQLKDNRFNLCLSMFKHTNRGLLYRMRIILVQIRLLGVFEYMKIKIYE | not soluble
STITTEEVLVTVFQFLEKATEYPYNDPHKTLALVVHGILLTHGFRPSEEEPPENVDNWSLSVENAKIPNCFEENKYGGSYRHYKSCMTFEVRMVPLDKYVVVNAVASDVDRVFYCELKLEKYFKDTVLEGGKLVVPLRNLKWSQILKNVTDMIAVLRTQIIYALVPDSAKEGYEAKTSETHVGQSTNQQSQDSRQFSLPSRDPLRVVPPVGSRYYPSAYIDEDRDSIPVLGQGDLYPGGLPRLERTFPSGPLDGSFAAPDNGSLMGPRHSMFQRRDQRPGPGNNMLPRGAVPPGARFDEFGPRFPPDETYSTLAGWRHRQEMPNNDVDEPPPPEMYM | soluble
MSLLEKDINLKIFKGNLIFTKTSDKFTIMKDSYIVVIDGKIASVSSNLPDKYKGNPIIDFRNNIIIPGMNDLHAHASQYKNLGIGMDKELLPWLNNYTFPEEAKFLNVDYAKKTYGRLIKDLIKNGTTRVALFATLHKDSTIELFNMLIKSGIGAYVGKVNMDYNCPDYLTENYITSLNDTEEIILKYKDKSNIVKPIITPRFVPSCSNELMDGLGKLSYKYRLPVQSHLSENLDEIAVVKSLHKKSNFYGEVYDKFGLFGNTPTLMAHCIHSSKEEINLIKRNNVTIVHCPTSNFNLGSGMMPVRKYLNLGINVVLGSDISAGHTCSLFKVIAYAIQNSKIKWQESGKKDMFLSTSEAFYMATKKGGSFFGKVGSFEEGYDFDALVINDSNLYPEDYDLTERLERFIYLGDDRNIMKRYVCGNEIFGPKFEGHHHHHH | soluble
MPSKQVGWWTMSEHTNDEVQPTALSGNDAVNRAAEQWKESAHRNIPGLGDLPIPDDTANLREGPNLHDGLLALLPLVGVWRGTGHADTAEEGQYAFGQQITFAHDGENYLTYESRIWKLDDEGNSTDLDYRESGFWRISLKDEIEVVLTHSTGVAEIFYGEPMNERAWQIESASTMVTAQGPATLGPGKRLYGLMPNNNLGWVDERMVDGEMRPRMSAELSRVIGLEHHHHHH | soluble
MEFYGPITGEKFAFLLFRDNGEVIEFNHWSQVKEYKSELKISKSSIQIFLRNGCVYPPYTIYSNVLMLPIGTKLTIDIKNDIFKWENNFCFLDRHSKQDSKPSTSKLKTLIANSFAHLKKEVKPIYMMQSAGKDSTAMLLGLHEQGIQNVHCVTYEANFRDTESDAAKKIAESLGFEHTILFPNYEAEFDALLEYQENAVSITGDFSMLPYIAANKSVFKSDSLVIDGLGNDLYMGYVSNKLERSIMKCSLGNFSYLEPSKFTSNEVINYAISSIFMKPYERLFPGTRLSSSEIENFTDNKFIDDDAIYFSKQYNNLDKDDFRAAIRARFCDSTMFQMKAELTTNSFGNEVYFPFSNKELVDYYFNLPIEERYDKANSCNKTLLRSMLNEYVEVDDFFKVKSGFRYNMPEFITINKEKIKKEIIECDLLEQDYSNRFFAKHLDVQKVNYTSACKAYILLVFASWRNRNKLAVVDGHVADKFDWY | not soluble
KRRIRQLELQVRMLEADKERLERELSRLRSEMSRLRQPPAFAGSVIEVLDDDRAIVQNYNGPRFVVRIAPWIDKSKLRPGTRVALDQRTMAIIEILPASKDPAVLGFEVVERPN | not soluble
MAHHHHHHMLHGNWKYLRQGGRQWMEKQARDPFVLEARRRGYVARSAFKLLEMDDKFGLFARNHTRVVVDIGCSPGGWLQVARERCGDRCALFGVDLLHVSPTVTGAVCIQGDFTDMAIQQQLLSRMENVHANGLVDVVMSDMCLNRGSGGTDDRQKQMQLNMEALAFATSQLRTGGNFVCKVLGTPTAFEELRGELQRWFVRSSLCKPFSSRRGSDEAFMVCLAKRETPRPRGCNIAEGETRDFGLDDWPGFLRRPRQKR | not soluble
MGSDKIHHHHHHMCASVLSRCGVALSQIQPIRCHLCQQTPCLTQCAEHNDTLNQHAAEYVKLVLAIGHHEPLYVDAYYGPAQWQAEASMLPLPELASRCASLVNQLANAGKDLSCQFLRDRHGFLSKQLGAVAAYLKRLMGQEFSFDVESRLLYDTQAPKLNLSDFSEVLARIDSLLPGEGSLTKRFDTYRSQFIVPADRVPQVFTAAVEQARLLTKRHLALPEGEQFRVEFVKDQIWTAYNWYQGDYASLIQLNQDHPLHLDRALELASHEGYPGHHVFNLLQEHELVKGLGWWEYAIYPLYSPISFLSEGSANYGLSLLMTKEERIDFEQRVLMPMAGIAGDLQHYHEVMVTYKALANLDTLVCRQLIDGEIQADEAARLLVEFALYTPEKAAQRVRFYQANRSYVLNYHHGEASVGEYVTNQVRDNAQAWEVFAALLARPRAASGIIR | not soluble
MPLDPQIKPILERIRALSIAASPQELRRQVEEQSRLLTAAVQEPIAETRDVHIPVSGGSIRARVYFPKKAAGLPAVLYYHGGGFVFGSIETHDHICRRLSRLSDSVVVSVDYRLAPEYKFPTAVEDAYAALKWVADRADELGVDPDRIAVAGDSAGGNLAAVVSILDRNSGEKLVKKQVLIYPVVNMTGVPTASLVEFGVAETTSLPIELMVWFGRQYLKRPEEAYDFKASPLLADLGGLPPALVVTAEYDPLRDEGELYAYKMKASGSRAVAVRFAGMVHGFVSFYPFVDAGREALDLAAASIRSGLQPS | soluble
MGSDKIHHHHHHMSRRDEGNMVADAGALLPNGDTVSTDAIKVPAGRVNRLMRLGGLAAGIAGGATLQAIAGIARGTRPDARSLLASPANVRRVADELARMRGAAMKIGQLLSMDAGEVLPPELAQILARLRDRAHIMPPSQLGQVLEREWGAGWRRQFKRFDVRPIAAASIGQVHRARTRDGRDLAIKVQYPGVARSIDSDVSNVGALLRLSGLLPKGFDISPYLAEARRQLHEETDYAREGAQLKRFAEWLTDSDTFVVPQYHADLSTAQILAMSYVAGQPIETLADADAATRNRVMTALVDLSLREVFHFGAMQSDPNFANYRYVPQSGRIVLLDFGAARDLHPLVTKSYADMLRSGLVGDDHGIWDAARALGLISDGPDIGSSEARLLALIAGVFEVLRAQEFDFADQTLIRALNEEGMALAQSGYHPPSLPMDVLYLQRKFGGLFLLGNRLRTKLCLRDIIDPYL | not soluble
MEVDNVKPSSSVPQRNWEKENNVQNVDSIFEYNNKQQVEIRNAKPWDKDPHYFKQIKISAIALLKMTMHAKRGGNLEIMGLLQGRIDANSFIILDVFALPVEGTETRVNAQAQAYEYMTVYSEMCDTEGRKEKVVGWYHSHPGYGCWLSGIDVSTQTLNQKFQEPWVAIVIDPLRTMSAGKVDIGAFRTYPEGYRPPDDVPSEYQSIPLAKIEDFGVHCKRYYSLDVSFFKSQLDAHILTSLWNSYWISTLSSSPLFSNVEFLNNQIQDINQKLSAVDKKLQLNDRSVDGHEALMKVVTDAKAVGDELETGRISHLVKQLLFARQAGGGCGCSHASAGSPMDIAVATEPEKAGPSPSAPEPAVEMADA | not soluble
